# Read-outs that look alike come from different tables or passages of the source.
# B1: COVID19_P20_F02 (scFv, V domains shown)
# VH: EVQLVESGGGLVQPGGSLRLSCAASGFAFSNYGMHWIRQAPGKGLEWVSGIDGSGGTAHYADSVKGRFTISRDNSKNTLYLQMNSLRAEDTAVYYCVTNMDNSRDYFPHYFHDMDVWGQGTLVTVSS
# VL: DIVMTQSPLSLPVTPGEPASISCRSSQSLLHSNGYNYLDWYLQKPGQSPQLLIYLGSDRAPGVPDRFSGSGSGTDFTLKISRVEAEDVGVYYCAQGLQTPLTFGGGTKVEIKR
# B2: COVID19_P08_F07 (scFv, V domains shown)
# VH: EVQLVESGGGLVQPGGSLRLSCAASGFIFTNYALHWVRQAPGKGLEWVSAISGSGGSTHYADSVKGRFTISRDNSKNTLYLQMNSLRAEDTAVYYCVTNLDNSRDYFPHYFHDMDVWGQGTLVTVSS
# VL: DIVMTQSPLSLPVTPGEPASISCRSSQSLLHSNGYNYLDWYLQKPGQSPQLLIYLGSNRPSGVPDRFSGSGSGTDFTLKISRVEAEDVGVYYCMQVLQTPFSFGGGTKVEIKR
# B3: COVID19_P07_F11 (scFv, V domains shown)
# VH: EVQLVESGGGLVQPGGSLRLSCAASGFTFSSYGMHWIRQAPGKGLEWVSAVSASGDRTHYADSVKGRFTISRDNSKNTLYLQMNSLRAEDTAVYYCVTNLDNSRDYFPHYFHDMDVWGQGTLVTVSS
# VL: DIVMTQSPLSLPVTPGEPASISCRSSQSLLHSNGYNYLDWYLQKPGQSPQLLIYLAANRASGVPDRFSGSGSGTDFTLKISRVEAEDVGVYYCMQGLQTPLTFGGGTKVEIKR
# B4: COVID19_P20_F08 (scFv, V domains shown)
# VH: EVQLVESGGGLVQPGGSLRLSCAASGFTFSSYAMHWVRQAPGKGLEWVSVISASGGNTYYADSVKGRFTISRDNSKNTLYLQMNSLRAEDTAVYYCVTNLDNSRDYFPHYFHDMDVWGQGTLVTVSS
# VL: DIVMTQSPLSLPVTPGEPASISCRSSRSLLHTNGLNYIDWYLQKPGQSPQLLIYLGSNRASGVPDRFSGSGSGTDFTLKISRVEAEDVGVYYCTQALQTPISFGGGTKVEIKR
# B5: COVID19_P08_B11 (scFv, V domains shown)
# VH: EVQLVESGGGLVQPGGSLRLSCAASGFTFSSYGMHWIRQAPGKGLEWVSAVSASGDRTHYADSVKGRFTISRDNSKNTLYLQMNSLRAEDTAVYYCVTNLDNSRDYFPHYFHDMDVWGQGTLVTVSS
# VL: DIVMTQSPLSLPVTPGEPASISCRSSQSLLHSNGYNRLAWYLQKPGQSPQLLIYLGSYRASGVPDRFSGSGSGTDFTLKISRVEAEDVGVYYCMQALQTPSFGGGTKVEIKR
# B6: COVID19_P08_C03 (scFv, V domains shown)
# VH: EVQLVESGGGLVQPGGSLRLSCAASGFTFSSYAMHWVRQAPGKGLEWVAVISSSGRNKFYADSVKGRFTISRDNSKNTLYLQMNSLRAEDTAVYYCVTNLDNSRDYFPHYFHDMDVWGQGTLVTVSS
# VL: not shown
# B7: COVID19_P19_C12 (scFv, V domains shown)
# VH: EVQLVESGGGLVQPGGSLRLSCAASGFTFRNYAMHWVRQAPGKGLEWVSAVSSSGGSPYYADSVKGRFTISRDNSKNTLYLQMNSLRAEDTAVYYCVTNMDNSRDYFPHYFHDMDVWGQGTLVTVSS
# VL: DIVMTQSPLSLPVTPGEPASISCRSSQSLVHSDGDNYLNWYLQKPGQSPQLLIYSGSYRASGVPDRFSGSGSGTDFTLKISRVEAEDVGVYYCMQGTHWPLTFGGGTKVEIKR
# B8: COVID19_P08_H09 (scFv, V domains shown)
# VH: EVQLVESGGGLVQPGGSLRLSCAASGFTFSDYALHWVRQAPGKGLEWVSGVSWNGSRTHYADSVKGRFTISRDNSKNTLYLQMNSLRAEDTAVYYCVTNMDNSRDYFPHYFHDMDVWGQGTLVTVSS
# VL: not shown
# What was measured:
# Assay in all cases: SPR, scFv captured via anti-V5, RBD as analyte
# [1] = biological target: T1, SARS-CoV-2 Receptor Binding Domain (RBD) protein (SARS-CoV-2, UniProt P0DTC2 319-541)
# [2] = biological target: MERS Receptor Binding Domain (RBD) protein (MERS coronavirus, UniProt K9N5Q8 367-606)
# [3] = biological target: T1, SARS-CoV-2 Receptor Binding Domain …; remark: listed apart in the source
# [4] = biological target: SARS-CoV-1 Receptor Binding Domain (RBD) protein (SARS-CoV-1, UniProt P59594 306-527)
Binder,Kd [1] [nM],koff [1] [s⁻¹],kon [1] [M⁻¹ s⁻¹],binding result [2],Kd [3] [nM],binding result [4]
B1,17.8,0.00081,45500,no binding (tested: up to 300 nM),< 50,no binding (tested: up to 300 nM)
B2,–,–,–,no binding (tested: up to 300 nM),< 50,no binding (tested: up to 300 nM)
B3,–,–,–,no binding (tested: up to 300 nM),< 50,no binding (tested: up to 300 nM)
B4,–,–,–,no binding (tested: up to 300 nM),< 50,no binding (tested: up to 300 nM)
B5,–,–,–,no binding (tested: up to 300 nM),< 50,no binding (tested: up to 300 nM)
B6,–,–,–,no binding (tested: up to 300 nM),< 50,no binding (tested: up to 300 nM)
B7,–,–,–,no binding (tested: up to 300 nM),< 50,no binding (tested: up to 300 nM)
B8,1.1,5.7e-05,51000,no binding (tested: up to 300 nM),–,no binding (tested: up to 300 nM)
